Among the data in patent publication US20020102568, “Nucleic acid sensor molecules” (published 2002) are EC50 values, retold here.

In general, EC50 refers to the midpoint of the concentration-response curve.

The target of the data set is ERK2 (unactivated, unphosphorylated) (UniProt P28482 P28482:2-360). Description: cleavage_in_vitro; half-maximal allozyme activation; about 100-fold activation by ERK2; 100 mM KCl, 1 mM MgCl2, 10 mM Tris 7.5, 34 C; text cites SEQ 39, listing gives Erk sensor molecule as SEQ 42. The procedure:
To examine the dependence of activation on the concentration of ERK2, various amounts of ERK2 were added to different reactions (FIG. 31b). One half-maximal nucleic acid sensor molecule activation is promoted by ˜800 pg/μl ERK2.

Sequence of ERK2 (unactivated, unphosphorylated) (P28482 2-360, one chain of several): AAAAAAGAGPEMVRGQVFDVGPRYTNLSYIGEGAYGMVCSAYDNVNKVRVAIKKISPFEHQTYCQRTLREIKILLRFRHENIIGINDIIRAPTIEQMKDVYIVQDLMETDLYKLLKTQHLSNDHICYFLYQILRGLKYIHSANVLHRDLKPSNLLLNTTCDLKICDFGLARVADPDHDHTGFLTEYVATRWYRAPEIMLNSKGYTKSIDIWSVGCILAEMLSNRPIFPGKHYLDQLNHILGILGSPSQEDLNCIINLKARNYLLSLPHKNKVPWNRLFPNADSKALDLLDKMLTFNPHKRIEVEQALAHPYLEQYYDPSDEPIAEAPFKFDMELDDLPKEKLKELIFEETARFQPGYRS

B1: ERK2-responsive hammerhead allozyme (ssRNA)
RNA: GCGUGACCUGAUGAGUCACGCUAAGGAGGAUUUCCGAAAGCGGCUACGGUCCGCCAGUGUUACGAAACGUUCCC
As for B1, the EC50 was ~0.8 mg/L.
